Data: IntAct's records for PubMed 23523425

B1: Polycomb group RING finger protein 2 (Homo sapiens), P35227 (parent)
chain: MHRTTRIKITELNPHLMCALCGGYFIDATTIVECLHSFCKTCIVRYLETNKYCPMCDVQVHKTRPLLSIRSDKTLQDIVYKLVPGLFKDEMKRRRDFYAAYPLTEVPNGSNEDRGEVLEQEKGALSDDEIVSLSIEFYEGARDRDEKKGPLENGDGDKEKTGVRFLRCPAAMTVMHLAKFLRNKMDVPSKYKVEVLYEDEPLKEYYTLMDIAYIYPWRRNGPLPLKYRVQPACKRLTLATVPTPSEGTNTSGASECESVSDKAPSPATLPATSSSLPSPATPSHGSPSSHGPPATHPTSPTPPSTASGATTAANGGSLNCLQTPSSTSRGRKMTVNGAPVPPLT
partner: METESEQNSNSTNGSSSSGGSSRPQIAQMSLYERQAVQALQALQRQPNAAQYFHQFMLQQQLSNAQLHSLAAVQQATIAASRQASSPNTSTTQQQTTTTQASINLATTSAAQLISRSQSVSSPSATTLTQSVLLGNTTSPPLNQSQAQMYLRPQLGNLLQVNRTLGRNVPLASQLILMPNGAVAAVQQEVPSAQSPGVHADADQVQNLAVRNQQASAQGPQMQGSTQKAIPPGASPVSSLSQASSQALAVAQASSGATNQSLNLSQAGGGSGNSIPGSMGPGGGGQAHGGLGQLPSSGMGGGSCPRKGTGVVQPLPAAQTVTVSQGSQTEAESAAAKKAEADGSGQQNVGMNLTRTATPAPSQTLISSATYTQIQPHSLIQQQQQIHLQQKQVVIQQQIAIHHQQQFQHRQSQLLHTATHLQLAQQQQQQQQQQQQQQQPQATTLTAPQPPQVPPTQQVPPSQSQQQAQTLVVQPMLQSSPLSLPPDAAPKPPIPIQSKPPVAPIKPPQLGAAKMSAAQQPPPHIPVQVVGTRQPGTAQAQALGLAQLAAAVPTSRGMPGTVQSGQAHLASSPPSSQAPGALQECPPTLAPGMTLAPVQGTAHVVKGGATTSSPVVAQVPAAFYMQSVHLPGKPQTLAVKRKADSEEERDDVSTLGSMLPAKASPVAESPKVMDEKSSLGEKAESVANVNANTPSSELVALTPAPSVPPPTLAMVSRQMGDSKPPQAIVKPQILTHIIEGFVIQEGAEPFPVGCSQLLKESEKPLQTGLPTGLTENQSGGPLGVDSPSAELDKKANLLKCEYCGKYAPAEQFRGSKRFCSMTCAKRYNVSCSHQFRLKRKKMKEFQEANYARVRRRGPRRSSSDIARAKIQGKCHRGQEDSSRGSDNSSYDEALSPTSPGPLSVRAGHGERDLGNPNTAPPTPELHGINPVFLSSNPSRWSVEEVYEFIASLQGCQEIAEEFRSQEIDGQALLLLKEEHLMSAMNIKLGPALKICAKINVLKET
B2: Polycomb complex protein BMI-1 (Homo sapiens), P35226 (parent)
chain: MHRTTRIKITELNPHLMCVLCGGYFIDATTIIECLHSFCKTCIVRYLETSKYCPICDVQVHKTRPLLNIRSDKTLQDIVYKLVPGLFKNEMKRRRDFYAAHPSADAANGSNEDRGEVADEDKRIITDDEIISLSIEFFDQNRLDRKVNKDKEKSKEEVNDKRYLRCPAAMTVMHLRKFLRSKMDIPNTFQIDVMYEEEPLKDYYTLMDIAYIYTWRRNGPLPLKYRVRPTCKRMKISHQRDGLTNAGELESDSGSDKANSPAGGIPSTSSCLPSPSTPVQSPHPQFPHISSTMNGTSNSPSGNHQSSFANRPRKSSVNGSSATSSG
partner: B1 partner

Variants of: B1
Details: with phc1_human PHC1, P78364

Effect of a mutation on the interaction, decreasing interaction strength:
R164A
F165A
F180D

Variants of: B2
Details: with phc1_human PHC1, P78364

Effect of a mutation on the interaction, decreasing interaction strength:
Y163A
R165A
F178D
